In the nanobody polyreactivity screen of Harvey et al. (2022):

Experiment: yeast display, Sf9 membrane polyspecificity reagent, FACS + sequencing; frameworks hold sequencing errors
How it was run: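 Galactose induction of a Saccharomyces cerevisiae BJ5465 synthetic nanobody display library ran 36–48 hours. The cells were then stained for 1 hour at 4 °C with 10% biotinylated, detergent-solubilized Sf9 membrane reagent, pulled down on streptavidin microbeads and FACS-sorted into low and high (top ~1%) gates on expression and reagent-binding fluorescence. Labels for polyreactivity follow the gate of origin.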

Sequence	polyreactivity (PSR sort gate)
QVQLVESGGGLVQAGGSLRLSCAASGSTFFSYAMGWYRQAPGKDRELVAAISNSGGTTYYADSVKGRFTISRDNAKNTVYLQMNSLKPEDTAVYYSATRARYVGGYKYNYWGQGTQVTVSS	high polyreactivity
QVQLVESGGGLVQAGGSLRLSCAASGGNFAEYVMGWYRQAPGKERELVAAIDWSGGSTYYADSVKGRFTISRDNAKNTVYLQMNSLKPEDTAVYYCNADGPLDRYEYWGQGTQVTVSS	low polyreactivity
QVQLVDSGGGLVQAGGSLRLSCAASGITFRYYAMGWYRQAPGKERELVAAITRGGRTNYADSVKGRFTISRDNAKNTVYLQKNSLKPEETAVYYCATGRDSNFGNSYYYWGQGTQVTVSS	high polyreactivity
QVQLVESGGGLVQAGGSLRLSCAASGYIFKTYDMGWYRQAPGKETELVAAITASGGSTSYADSVKGRFTISRDNAKNTVYLQMNSLKPEDTAVYYCAAVYVRFKAERGVYLYPYDYWGQGTQVTVSS	high polyreactivity
QVHLVESGGGLVKAGGSLRLSCAASGSIFTWYAMGWYRQEPGKERELVAAITWRGGSTYYADSVKGRFTISRDNAKNTVYLQMNSLKPEDTAVYYCAAAGRSGKSLLQYGYWGQGTQVTVSS	high polyreactivity
QVQLVESGGGLVQAGGSLRLSSAASGSIFVPYAMGWYRQAPGKEREFVAAIYSGGGNTYYADSVKGRFTISRDNAKNTVYLQMNSLKPEDTAVYYCAAAYVYSSWSRYDYWGQGTQVTVSS	high polyreactivity
QVQLVESGGGLVQAGGSLRLSCAASGFILLDNAMGWYRQAPGKEREFVASINISGDRTFYADSVKGRFTISRDNAKNTVYLQMNSLKPEDTAVYYCAKEPGWGRRSTTAYDYWGQGTQVTVSS	low polyreactivity
QVQLVESGGGLVQAGGSLRLSCAASGFIFGIYAMGWYRQAPGKERELVARISRSGVSTYYADSVKGRFTISRDNAKNTVYLQMNSLKPEDTAVYYCNAYRGGLSSEHYYWGQGTQVTVSS	high polyreactivity
QVQLVESGGGLVQAGGSLRLSCAASGSICVRNAMGWYRQAPGKERELVAADSVKGRFTISRDNAKNTVYLQMNSLKPEDTAVYYCNKAYIIRRGPIVYYGFDYWGQGTQVTVSS	low polyreactivity
QVQLVESGGGLVQAGGSLRLSCAASGFIFAEYAMGWYRQAPGKDRELVAAITSGGSTSYADSVKGRFTISRDNAKNTVYLQMNSLKPEDTAVYYCAATWYYHYNDWKHWYEYGYWGQGTQVTVSS	low polyreactivity
QVQLVESGGGLVQAGGSLRLSCAASGSILHPNGMGWYRQATGKERELVAAITINGDSTYYADSVKGRFTISRDNAKNTVYLQMNCLKPEDTAVYYCAVDGWPTGWYYYWGHGTQVTVSS	low polyreactivity
QVQLVESRGGLVQAGGSLRLSCPASGFTFVNYAMGWYRQAPGKERELVAAIRRSGSRTYYADSVKGRFTISRDNAKNTVYLQMNSLKPEVTAVYYCNAPVVYFWPLNFDYWGQGTQVTVSS	low polyreactivity
QVQLVESGGGLVQAGGSLRLSCAASGRIFTTYAMGWYRQAPGKEMELVAAIDYSDGSTYYADSVKGRFTISRDNAKNTVYLQMNSLNPEDTAVYYCAADGTYVWGSEEGNYWGQGTQVTVSS	low polyreactivity
QVQLVESGGGLVQAGGSLRLSCAASGSTFGYYAMGWYRQAPGKEMELVAAITSGASTNYADSVKGRFTISRDNAKNTVYLQMNSLKPEDTAVYYCAADFLSPAYRPSWYRFDYWGQGTQVTVSS	low polyreactivity
QGHLVESGGRLVQAGGSLRLSCAASGRIFPTYTMGWYRQAPWKERELVAAIRRGGGRTYYADSVKGRFTISRDNAKKTVYLQMNSLKPEDTAVYYCAAPFYRQSLIEYDYWGQGTQVTVSS	high polyreactivity
QVQLVESGGGLVQAGGSLRLSCAASGRIFRFNAMGWYRQAPGKERELVAAITSGVRTNYADSVKGRFTISRDNAKNTVYLQMNSLKPEDTAVYYCAASRHYPGYRRYDYWGQGTQVTVSS	high polyreactivity
QVQLVESGGGLVQAGGSLRLSCAASGIFRRYAMGWYRQAPGKERELVAAISSSGGSTDYADSVKGRFTISRDNAKNTVYLQMNSLKPEDTAVYYCNAYDQHGWWCYAYDYWGQGTQVTVSS	high polyreactivity
QVQLVESGGGLVQAGGSLRLSCAASGSTFVSYAMGWYRQAPGKERELVAGISWSGTRTYYADSVKGRFTISRDNAKNTVYLQMNSLKPEDTAVYYFNAVYKYNYRTLDYWGQGTQVTVSS	high polyreactivity
QGQLVESGGGLVQAGGSLRLSCADSGNTFNPNAMGWYRQAPGKERELVAVIRFRGVSKYYADSVKGRFTISRDNAKNSVYLQMNSLKPEDTAVYYCAADFLYYYLRYYFWGQGTQVTVSS	high polyreactivity
QVQLVESGGRLVQAGGSLPLSCAASGFIFRYYAMGWYRQAPGKERELVAAIDYSGGSTNYADSVKGRFTISRDNAKNTVYLQMNSLKPEDTAVYYCNAEYTWHRGYDYWGQGTQVTVSS	low polyreactivity
QVQLVESGGGLVQAGGSLRLSCAASGFIFAYNAMGWYRQAPGKERELVASIRTRAGSTYYADSVKGRFTISRDNAKNTDYLQMNSLKPADTAVYYSAARPFPRRYDYWGQGTQVTVSS	low polyreactivity
QVQLVESGGGLVQAGGSLRLSCAASGRIFGLNAMGWYRQAPGKERELVAAIDQGDGITYYADSVKGRFTISRDNAKNTVYLQMNSLKPEDTAVYYCAAEVSYKEIYQYYWIYPAYNYWGQGTQVTVSS	high polyreactivity

Sequence	polyreactivity (PSR sort gate)
QVQLVESGGGLVQAGRSLRLICAASGLILFYNAMGWYRQPPGKERELVAVITSGGRTYYADSVKGRFTISRDNAKNTVYLQMNSLKPEDTAVYFCAATYGHPTSYGDGWRYGYWGQGTQVTVSS	low polyreactivity
QVQLVESVGGLVQAGGSLRLSCAASGSTFEIYAMGWYRQAPGKERELVAVISGGDGSTYYADSVKGRFTISRDNAKNTVYLQMNSLKPEDTAVYYCAADYISPGYWDGEYDCWGQGTQVTVSS	low polyreactivity
QVQLVDSGGGLVQAGGILRLSCAASGRIFYYNTMGWSRQAPGKERELVARITYSGGRTYYADSVKGRFTISRDNAKNTVYLQMNSLKPEDTAVYYCAARRRTFYATSSAINGYDYWGQGTQVTVSS	high polyreactivity
QVQLVESGGGLVQAGGSLRLSCAASGRIFTRNAMGWYRQAPGKEREFVAAISWSGGSTYYADSVKGRFTISRDNAKNTVDLQMNSLKPEDTAVYYCSAKNSGGYVSWYDYWGQGTQVTVSS	low polyreactivity
QVQLVESGGGLVQAGGSLRLSCAASGIIFRLNAMGWYRQAPGKERELVAAIRRRGGSTYYADSVKGRFTISRDKAKNTVYLQMNSLKPEDTAVYYCAKDPHGSDFGYWGQGTQVTVSS	low polyreactivity
LVQLVESGGGLVQAGGSLRLSCAASGRIFVGYAMGWFRQAPGKERELVAAISRRAGRTYYADSVKGRFTLSRDNAKNTVYLQMNSLKPEDTPVYYCIAPRYYPKAGFDYWGQGTQVTVSS	high polyreactivity
QVQLVESGGGIVQAGGSLRLSCAASGFTCGPYAMGWYRQAPGKERELVATIRSGDSTNYADSVKGRFTISRDNAKNTVYLQMNSLKPEDTAVYYCARDARASARRKRYDYWGQGTQVTVSS	low polyreactivity
QVQLVESGGGLVQAGGSLRLSCAASGRIFDGNALGWYRKAPGKERELFAAISWTGGSTYYADSVKGRYTISRDNAKNTVYLQLNSLKPEDTAVYYCAADSGWWLDQLSWYDYWGQGTQVTVSS	low polyreactivity
QVQLVESGGGLVQAGGSLRLSCAASGSSFSHNVMGWYRQAPRKERELVATINWSGGSTYYADSVKGRFTISRDNAKKSDYLQMNSLKPEDTAVYYCAADRQITVYAYDYWGQGTQVTVSS	low polyreactivity
QVQLVESGGGLVQAGGSLRLSCAASRSTSPAYAMGWYRQAPGKERELVAVITGSGASTYYADSVKGRFTISRDNAKNTVYLQMNSLKPEDTAVYYCAADVGFGVVFYDYWGQGTQVTVSS	low polyreactivity
QAQLQESGGSLVQAGGGLRLSCAASGYISVGSVMGWYRQAPSKERELGASIDQGANTNYADSVKGRFTISRDNAKNNVYLQMNSLKPEDTAVYYCATETTYILNYWGQGTQVTVSS	low polyreactivity
QVQHVESGVGLVQAGGSLRLSCAASGFIFTINAMGWYRQAPGKERELVAAISWSGGRTYYADSVKGRFTISRDNAKNTVYLQMNSLNPEDTAVYYCNAYPATQYDYESWGQGTQGTVSS	high polyreactivity
QVQLVESGGGLVQAGGSLRLSCAASGRTFRYNAMGWSRQAPGKERELVADITKSGGTTYYADSVKGRFTISRDNAKNTVYLQMNSLKPEDTAVYYCNAYRVVHPWEYDYWGQGTQVTVSS	high polyreactivity
QVQLQESGGGLVLAGGSLRLNCAESGYISWSFTMGWYRKPTGKEREFVAGITYGGITYYADSVKGRFTISRDNAKNTVYLEMNRLKPEDTAVYYCAAPQSYPYVYVYWGQGTEVTVSS	high polyreactivity
QVQLVESGGGLVQAGGSLRLSCAASGFTFTPNAMGWYRQAPGKERELVAAISGSGGSTYYADSVKGRFTISRDNAKNTVYLQMNSLKPEDTAVYYCAKRRGVYTHWYDYWGQGTQVTVSS	high polyreactivity
QVQLVESGGGLVQAGGSLRLSCAASGIFVRYAMGWYRQAPGKEREMVAAISFSDDSTYYADSVKGRFTISRDNAKNTVYLQMNSLKPEDTAVYYCNARLERTPCLYLYGSWGQVTQVTVSS	low polyreactivity
QVQLQESGGGLVQAGGSLRPSCAPSGSISDGDPMAWYRQAPGEERELVATTVLGATTNYADSVKGRFTISRGNAENTVYLERYWLKPVETAVYYCAAPLRYDKGFSYWGQGTQVTVSS	low polyreactivity
QVQLVESGGGLVQAGGSLRLSCAASGRTLVYYAMGSYRQSPGKERELVAAISWSGSRTYYADSVKGRFTISRDNAKNTVYLQMNSLKPEDTAVYYCATLTFRTNGTMDYWGQGTQVTVSS	high polyreactivity
QVQLVESGGGLVQAGGSLRLSCAASGRTFIYNVMGWYRQAPGKERELVAAISQRGGSTYYADSVKGRFTISRDNAKNTVYLQMNSLKPEDTAVYYCAAESYYKKWSDYWGQGTQVTVSS	high polyreactivity
QVQLVESGGGLVQAGGSLRLSCAASGIIFESYAMGSYRQAPGKEREFVAAISSRGGSTYYADSVKGRFTISRDNAKNTVYLQMNSLKPEDTAVYYCAARGYRRTFDYREYDSWGQGTQVTVSS	low polyreactivity
QVQLVESGGGLVQAGGSRRLSCAASGSIFTGYAMGWYRQSPGKERELVAAINSNGGRTYYADSVKGRFTISRDNAKNTVYLQMNSLKPEDTAVYYCAADSGRGYRYKTFNWGRFYWGQGTQVTVSS	high polyreactivity
